Experimental data as given in article PMC6908506, “Development of Foot-and-Mouth Disease Virus-Neutralizing Monoclonal Antibodies Derived From Plasmablasts of Infected Cattle and Their Germline Gene Usage” (Frontiers in Immunology, 2019).

B1: F39 (antibody, V domains shown)
VH: QVQLRESGLSLVKPSQTLSLTCTVSGFSLSSYGVGWVRQAPGKALECLGGITSGGSADYNPALKSRLSITKDNSKSQVSLSLSSVTTEDTATYYCGKTSRFYGLVCNVDFYDDSEYVDAWGQGLLVTVSS
VL: QAVLTQPSSVSGSLGQRVSITCFGSSNDVGYGDYVSWFQQIPGSAPRMIIYGATRRPSGVPDRFSGSRSGNTATLTINSLQAEDEADYFCASPVGLGSGYPIFGSGTALTVL
B2: F56 (antibody, V domains shown)
VH: QVQLRESGPSLVKPSQTLSLTCTFSGFSLSSNGVLWVRQAPGKALEWLGGMCRSGSTNFNPALKSRLSITKNNSKSQVSLSVSSVTPEDTATYYCTTGFDLDCDWGYEDSTWGQGLLVTVSS
VL: QAVLTQPSSVSGSLGQRVSITCSGSSSNIGNDDVGWYQQIPGSGLRTIIYGNNSRPSGVPDRFSGSKSGNTATLTISSLQAEDEADYFCASADDNTSTAVFGSGTTLTVL
B3: F104 (antibody, V domains shown)
VH: QVQLRESGPSLVKPSQTLSLTCTVSGFSLSSYDVGWVRQAPGKGLECLGGIGNRGNTKYNPALKSRLSITKDNSKSQVSLSLSSVTSEDTATYYCTKSYGGNDVYDCYDSEYWGQGLLVTVSS
VL: QAVLTQPSSVSGSLGQRVSITCSGSSNNIGRYSVGWYQQVPGSGLRTIIYISSSRPSGVPDRFSGSKSGNTATLTISSLQAEDEADYFCATNDYSSDTTIFGSGTTLTVL
B4: E40 (antibody)
VH: QVQLRESGPSLVKPSQTLSLTCTASGFSLSDKAVGWVRQAPGKALEWLGGIDTGGNKDYNPGLKSRLSITKDNSKSQMSLSMSSVTTEDSATYYCTTVHQKTNTAKTCRDGHVDVSSCYGSSGCPRSGCCACRRWGGTACSICSSRIVTYTYEFHVDVWGQGLLVTVSS
VL: QAVLTQPSSVSGSLGQRVSITCSGSSSNVGNGYVSWYQLIPGSAPRTLIYGDTSRASGVPDRFSGSRSGNTATLTISSLQAEDEADYFCASPEDSSTNALFGSGTTLTVL
B5: E16 (antibody)
VH: QVQLRESGPSLVKPSQTLSLTCTVSGFSLSDKAVGWVRQAPGKALEWLGSIDGGEKTTYNPGLKSRLSITKDNSKNQVSLSVSSVSTEDSATYYCSIVYQKRERKCPDGYRPGTFCGSGINARDCRYDGCYASEHWQCCDTYTPGTSAYNFHIDAWGQGLLVTVSS
VL: QAVLTQPSSVSGSLGQRVSITCSGSSSNVGKGYVSWYQRIPGSAPRTLIYDDTSRASGVPDRFSGSRSGNTATLTISSLQVEDEADYFCASAEGSSSNAVFGSGTTLTVL
B6: E43 (antibody)
VH: QVQLRESGPSLVKPSQTLSLTCTASGFSLRDKAVGWVRHTPGKALEWIGSIDSSGNTGYNPGLKSRLSITKDNSKSQVSLSVSAVLSEDSATYYCTVVHQETRQEEGCPDGYLYDSRCGPGGGCSGRLCTRTPSARANDFCCTGRRIRTSTYQHHIDAWGQGLLVTVSS
VL: QAVLTQPSSVSGSLGQRVSITCSGSSSNVGNGYVSWYQLTPGSAPRTLIYGDTTRASGVPDRVSGSRFGNTATLTISSLQAEDEADYFCASAEDGNSNAVFGSGTTLTVL
B7: F115 (antibody)
VH: QVQLRESGPSLVKPSQTLSLTCTASGFSLSDKTLGWVRQAPGKALEWLGSMDSGGNTGYNPDLKSRLSITKDNSRSQVSLSVSSVTTEDSATYYCTTTHQISRKEQRCPDGCRVNGWWGDSGCDDDTYCRYNYWGNCIRCTYVYTYEFHVDAWGQGLLVTVSS
VL: QAVLTQPSSVSGSLGQRVSITCSGSSSNVENGYVSWYQLIPGSTPKTLIYGDTSRASGVPARFSGSRSGNTATLTISSLQAEDEADYFCASAEDTSSNAVFGSGTTLTVL
B8: F4 (antibody, V domains shown)
VH: QVQLRESGPSLVKPSQTLSLTCTVSGFSLSSSGVVWVRQAPGKALEWVGSLSSGGLTSRNPALKSRISITKDNSKSQVSLSMSSVTPEDTATYYCAKCGGFYGSTCNGYGSSYDFWGRGLLVTVSS
VL: QAVLTQPSSVSGSLGQRVSITCSGSSSNVGNGYVSWYQLIPGSAPRTLIYGDTSRASGVPDRFSGSRSGNTATLTISSLQAEDEADYFCASAEDSSSNAVFGSGTTLTVL
B9: F36 (antibody, V domains shown)
VH: QVQLRESGPSLVKPSQTLSLTCTVSGFSLSSYAVNWVRQAPGKALECLGSIGSGGSTGYNPALKSRLSITKDNSKSQVSLSVSSVTPEDTATYYCAKTTYSGDSRTFYGCYGSGSAYETYVDTWGQGLLVTVSS
VL: QAVLTQPSSVSGSLGQRVSITCSGSSNNIGNNGVVWYQQVPGSGLRTIIYGSTGRPSGVPDRFSGSKSGNTATLTISSLQAEDEADYFCGTADDSSSIAVFGSGTTLTVL
B10: E12 (antibody, V domains shown)
VH: QVQLRESGPSLVKPSQTLPLTCTVSGFSLSDYGVGWVRQAPGKALEWLGVIYYAGRTVYNPALKSRLSITKDNSKSQISLSLSSVITEDTATYYCTRCYEDYYYDCIDWGHRYDLWGQGLLVTVSS
VL: QAVLTQPSSVSGSLGQRVSITCSGSSSNVGTGNYVTWFQQIPGSAPRILIYGASSRVSGVPDRFSGSRSGNTATLTISSLQAEDEADYFCTSYESDYTAVFGSGTTLTVL
B11: F45 (antibody, V domains shown)
VH: QVQLRESGPSLVKPSQILSLTCTVSGFSLSSNGAVWVRQAPGKTLEWIGGISVDGSVRYNPALNSRLSITKDNSKSQVSLSMTSATPEDTATYFCVRCFSGYSPNSVCSTADYVDAWGQRLLVTVSS
VL: QAVVNQPSSVSGSLGQRVFITCSGSSSNVGNGYVIWYQLIPGSGPTTLIYGDASRPSGVPDRFSGSRSGNTATLTIISLQAEDEEDYFCASAEDSSTNAVFGSGTTLTVL
B12: F64 (antibody, V domains shown)
VH: QVQLRESGPSLVKPSQTLSLTCTVSGLSLNSIGVIWVRQAPGKALEWVGGINSGGSTYYKSALKSRLSITKDNSNSQVSLSLNSVTPEDTATYYCATYVGDFWGQGLLVTVSS
VL: QAVLTQPSSVSGSLGQRISITCSGSSSNIGRYNVGWYQQVPGSGLRTIIYGSSSRPSGVPDRFSGSKSGNTATLTISSLQAEDEADYFCAADDNSNSTAVFGSGTTLNVL

Columns and labels:
[1] = biological target: T1, FMDV O/Mya/98 146S antigen (Foot-and-mouth disease virus serotype …, UniProt G8JKC2, strain); assay: immunostaining of cells or tissue; settings: one partner purified
T1 construct: also called purified virus antigen; copies: + + +

[2] = biological target: T1, FMDV O/Mya/98 146S antigen; assay: ELISA; settings: both partners purified

| Binder | binding result [1] | binding result [2] |
| --- | --- | --- |
| B1 | binds |  |
| B2 | binds |  |
| B3 | binds |  |
| B4 | binds |  |
| B5 |  | binds |
| B6 | binds |  |
| B7 | binds |  |
| B8 | binds |  |
| B9 | binds |  |
| B10 |  | binds |
| B11 | binds |  |
| B12 | binds |  |
